Columns and labels:
Assay in all cases: partitioning into condensates
PLPPR3 ICDΔ345 = PLPPR3 ICDΔ345 (UniProt Q7TPB0)
[1] = target: PLPPR3 ICDΔ345/Δ399 (double mutant) (UniProt Q7TPB0)
PLPPR3 ICDΔ399 = PLPPR3 ICDΔ399 (UniProt Q7TPB0)
[2] = target: PLPPR3 intracellular domain (ICD), purification construct HA-M1-PLPPR3 ICD-His (UniProt Q7TPB0)

partition coefficient of G-actin into condensates, k actin (Cin/Cout) (PLPPR3 ICDΔ345): 15.2
partition coefficient of G-actin into condensates, k actin (Cin/Cout) [1]: 11.8
partition coefficient of G-actin into condensates, k actin (Cin/Cout) (PLPPR3 ICDΔ399): 11.8
partition coefficient of G-actin into condensates, k actin (Cin/Cout) [2]: 15.4
Substance: alpha-actin (from UniProt P68032 1-377) (natural protein)

— paper doi:10.1101/2025.10.09.681077
